Source: the supplement of paper PMC12042874
± gives the uncertainty stated by the source.

experiment: amyloid nucleation score (Sup35N fusion, yeast selection) (log enrichment); library NNK1; higher = more nucleation; inactive = no reads after selection
How it was run: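 Sup35N was fused to peptides of 20 random codons and expressed in psi-negative yeast, which were induced with 100 μM copper sulfate for 24 hours and then grown on medium lacking adenine and uracil for 7 days at 30°C. Plasmid inserts from input and output were sequenced on Illumina. The nucleation score is the DiMSum log enrichment of output over input reads, centred on the mode score of non-aggregating sequences. Sequences with under 100 input reads were left out, and random libraries had three technical output replicates.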

| Substance | amyloid nucleation score |
| --- | --- |
| CTSLDFSNKVRCVMGQSVLL | -0.606 ± 0.97 |
| GIKCTRFWQVPNRGDRV | -0.813 ± 0.48 |
| DYALYYGVASNRFFGLFRSP | 0.642 ± 0.31 |
| RAVRVMRLSSGLSLGRPSDW | inactive |
| NRIFCLYSFCCFHENWVGLY | 4.96 ± 0.095 |
| RIYLRFYLIIR | 1.07 ± 0.85 |
| NDSDARYHVFRK | -0.256 ± 1.2 |
| RRSESCMFYVMWYGNRYLEG | 0.638 ± 0.18 |
| CSRNTSVA | 1.01 ± 0.57 |
| NVPCRVLRFGHLSDIGIDCQ | 0.705 ± 0.9 |
| ARFMSLTRSSACETNVGVYL | 0.608 ± 0.32 |
| IVLRFIRILISINLSQEH | -1.14 ± 0.76 |
| LAMFHSWGVGFATLGVKISE | 1.04 ± 0.78 |
| ISSTGKIFGFFPLCSYMN | 0.041 ± 0.47 |
| YWVYSSRGCA | inactive |
| EQENMCSVRQACIYH | 1.57 ± 0.29 |
| YPWIFCFEILHYYQLVRLWG | -1.13 ± 0.55 |
| ALFESRPYTLSRERDKL | -0.302 ± 0.36 |
| CSNRWYVNMFVHWIFVHLGS | 1.47 ± 0.53 |
| FHMAKRLYC | 0.276 ± 0.46 |
| CSRRFYESPCKEPAA | 0.145 ± 0.43 |
| NYFTRFVTGDGLSFLMRVAT | 0.487 ± 0.82 |

| Substance | amyloid nucleation score |
| --- | --- |
| ELAAMCSWAYSN | 0.097 ± 0.41 |
| QRFQAGPCRFSE | -0.394 ± 0.95 |
| YNPNGLTMGCGHKYTVEHTT | 0.128 ± 0.47 |
| KWSWGGPRDMIFKDTLAGAR | inactive |
| SDTLCPSADWVRRSARCQVD | 0.8 ± 0.74 |
| FIGGLHMALYDYPVEGSALA | 0.622 ± 0.76 |
| YVLKCKNILMYEYLNEVKIS | 0.219 ± 0.27 |
| NRVLLSEAKSQFIG | 0.366 ± 0.59 |
| LSKYGVCVALLCIWMGHNWC | 0.22 ± 0.2 |
| FICVMTRSGQDSSGMLLREG | 0.105 ± 0.2 |
| LDGGIIRRILVIVKCWGRCC | 0.108 ± 0.2 |
| WLSPQG | 0.453 ± 0.62 |
| GDNVFFMLERALFVVRNRRV | -0.386 ± 0.86 |
| SNSLTFYFSKCYTSCSNLLG | 6.079 ± 0.057 |
| PKFCWAWSYALMGNKNLKSC | -0.715 ± 0.34 |
| GAKICIYELVLHEMRACVAR | -0.282 ± 0.96 |
| SSRCY | 0.104 ± 0.85 |
| GPYCHGWNLKNERAVSLRG | -0.647 ± 0.47 |
| LALPIFAFER | -0.839 ± 0.46 |
| YLFQAGQDTRLLIC | 0.236 ± 0.63 |
| WLMVLATGAYAMHWVVTSSL | 2.98 ± 0.069 |
| ILSYVTVDPAKVNYIFREWF | -1.03 ± 0.76 |

| Substance | amyloid nucleation score |
| --- | --- |
| GFLLGFCYPPQVQLVHVLTR | inactive |
| NVPIPRAFRDNRTL | 0.577 ± 0.5 |
| WPASLSSCIS | -0.047 ± 0.66 |
| VVWWGEQHGLYSYFGHGIGI | 0.968 ± 0.63 |
| YNTSGNTRS | -0.269 ± 0.64 |
| VRHTQHRSSL | -1.62 ± 1.3 |
| TDSSREGVNLHKLLFTFAMR | 0.137 ± 1.1 |
| LYDFINYG | -0.592 ± 1.2 |
| ERNSITSILKRNRLSRGFAL | 2.44 ± 0.48 |
| SYYNSVWTRYECAVVWT | 0.413 ± 1.1 |
| FRIAGSKRCFCID | 0.463 ± 0.31 |
| NLLYTY | 1 ± 0.53 |
| SSVSPIHHRLYKTETPMWLT | -0.369 ± 0.58 |
| NTRAPFLKHLNYFAYTTFII | 0.123 ± 0.22 |
| VSLYM | 0.924 ± 0.97 |
| NVGGFQSLPEYNSYRMRAEQ | 0.26 ± 0.56 |
| DLFCFELVDHTLLLGWTTVQ | -0.564 ± 0.66 |
| SVNWRYRALFDVRPAPLASQ | -1.74 ± 2.4 |
| KIRVYSRCCFLSG | 5.63 ± 0.071 |
| DKERSGTKQYNSYG | -0.039 ± 0.73 |
| FKRFWLR | 0.166 ± 0.73 |
| MTSLDFNYGISKLESSFYMY | -0.739 ± 0.29 |

| Substance | amyloid nucleation score |
| --- | --- |
| LLFHSGWMMNGNPWACWYRE | 1.89 ± 0.25 |
| YNYSRYIRERFWFYT | 0.115 ± 0.38 |
| NGEIVYASWTCDPSIGRRGK | 0.207 ± 0.97 |
| SRRSENYFSGANRIGHGGST | 0.54 ± 0.4 |
| QRIVTG | -0.123 ± 0.59 |
| CVKRLLPVYWWGESG | 0.123 ± 0.91 |
| KSMKGRSLRLRLKRDPRKVA | -0.051 ± 0.4 |
| ICTEIRRGLHE | 1.11 ± 0.71 |
| PFTVTKFRSYEISVINLPNW | 1.34 ± 0.11 |
| CCHAYRFGWNASVLRCGICL | -0.444 ± 1.9 |
| WNCLCSGLTC | 6.806 ± 0.055 |
| GDAMASFPAACCGTRCCGFV | 0.41 ± 0.4 |
| ALFCSTIRNQIGFIRHPESF | 0.026 ± 0.58 |
| ITGGVVWEHS | 0.358 ± 1 |
| CLVVVISS | -0.369 ± 0.57 |
| ACTGARCVRDQ | 0.452 ± 0.45 |
| GFTGFNRIGVLVGWKCN | 0.763 ± 0.92 |
| NRRSSKLIN | inactive |
| EPKVSSEQKVFDSCYT | 0.417 ± 0.61 |
| SLVASNSQL | 0.06 ± 0.45 |
| HCTLHSSVCSSGCWIE | 1.1 ± 0.97 |
